# Laboratory results taken from patent US20240117018A1.
# Tests used:
# Assay in all cases: cell-based or functional assay
# [1] = target: HIV-1 Env of pseudovirus SC422661.8 (HIV-1)
# [2] = target: HIV-1 Env of pseudovirus 3365.v2.c2 (HIV-1)
# [3] = target: HIV-1 Env of pseudovirus 1006_11_C3_1601 (HIV-1)
# [4] = target: HIV-1 Env of pseudovirus BF1266.431a (HIV-1)
# [5] = target: HIV-1 Env of pseudovirus Du172.17 (HIV-1)
# [6] = target: HIV-1 Env of pseudovirus 249M B10 (HIV-1)
# [7] = target: HIV-1 Env of pseudovirus Du422.1 (HIV-1)
# [8] = target: HIV-1 Env of pseudovirus HIV-0013095-2.11 (HIV-1)
# [9] = target: HIV-1 Env of pseudovirus Q259.d2.17 (HIV-1)
# [10] = target: HIV-1 Env of pseudovirus ZM214M.PL15 (HIV-1)
# [11] = target: HIV-1 Env of pseudovirus ZM197M.PB7 (HIV-1)
# [12] = target: HIV-1 Env of pseudovirus CNE20 (HIV-1)
# [13] = target: HIV-1 Env of pseudovirus Ce1086_B2 (HIV-1)
# [14] = target: HIV-1 Env of pseudovirus 3415.v1.c1 (HIV-1)
# [15] = target: HIV-1 Env of pseudovirus 1012_11_TC21_3257 (HIV-1)
# [16] = target: HIV-1 Env of pseudovirus 7030102001E5(Rev-) (HIV-1)
# [17] = target: HIV-1 Env of pseudovirus REJO4541.67 (HIV-1)
# [18] = target: HIV-1 Env of pseudovirus 1056_10_TA11_1826 (HIV-1)
# [19] = target: HIV-1 Env of pseudovirus CNE17 (HIV-1)
# [20] = target: HIV-1 Env of pseudovirus T257-31 (HIV-1)
# [21] = target: HIV-1 Env of pseudovirus CNE21 (HIV-1)
# [22] = target: HIV-1 Env of pseudovirus Ce2060_G9 (HIV-1)
# [23] = target: HIV-1 Env of pseudovirus CNE19 (HIV-1)
# [24] = target: HIV-1 Env of pseudovirus Q461.e2 (HIV-1)
# [25] = target: HIV-1 Env of pseudovirus RHPA4259.7 (HIV-1)
# [26] = target: HIV-1 Env of pseudovirus ZM249M.PL1 (HIV-1)
# [27] = target: HIV-1 Env of pseudovirus CNE58 (HIV-1)
# [28] = target: HIV-1 Env of pseudovirus Du156.12 (HIV-1)
# [29] = target: HIV-1 Env of pseudovirus 231965.c01 (HIV-1)
# [30] = target: HIV-1 Env of pseudovirus C3347.c11 (HIV-1)
# [31] = target: HIV-1 Env of pseudovirus 6952.v1.c20 (HIV-1)
# [32] = target: HIV-1 Env of pseudovirus 3103.v3.c10 (HIV-1)
# [33] = target: HIV-1 Env of pseudovirus T278-50 (HIV-1)
# [34] = target: HIV-1 Env of pseudovirus C2101.c01 (HIV-1)
# [35] = target: HIV-1 Env of pseudovirus 6041.v3.c23 (HIV-1)
# [36] = target: HIV-1 Env of pseudovirus X2088_c9 (HIV-1)
# [37] = target: HIV-1 Env of pseudovirus BJOX009000.02.4 (HIV-1)
substance,measurement,setting,value
3BNC117 (antibody),IC50,[1],0.02 µg/mL
same,IC80,[1],0.08 µg/mL
same,IC50,[2],0.03 µg/mL
same,IC80,[2],0.1 µg/mL
same,IC50,[3],0.03 µg/mL
same,IC80,[3],0.1 µg/mL
same,IC50,[4],0.03 µg/mL
same,IC80,[4],0.09 µg/mL
same,IC50,[5],1.19 µg/mL
same,IC80,[5],8.9 µg/mL
same,IC50,[6],0.1 µg/mL
same,IC80,[6],0.4 µg/mL
same,IC50,[7],> 50 µg/mL
same,IC80,[7],> 50 µg/mL
same,IC50,[8],0.33 µg/mL
same,IC80,[8],2.53 µg/mL
same,IC50,[9],0.01 µg/mL
same,IC80,[9],0.05 µg/mL
same,IC50,[10],0.06 µg/mL
same,IC80,[10],0.52 µg/mL
same,IC50,[11],0.22 µg/mL
same,IC80,[11],1.03 µg/mL
same,IC50,[12],> 50 µg/mL
same,IC80,[12],> 50 µg/mL
same,IC50,[13],0.09 µg/mL
same,IC80,[13],0.31 µg/mL
same,IC50,[14],0.17 µg/mL
same,IC80,[14],0.47 µg/mL
same,IC50,[15],0.02 µg/mL
same,IC80,[15],0.07 µg/mL
same,IC50,[16],0.29 µg/mL
same,IC80,[16],1.44 µg/mL
same,IC50,[17],0.01 µg/mL
same,IC80,[17],0.05 µg/mL
same,IC50,[18],0.3 µg/mL
same,IC80,[18],1.82 µg/mL
same,IC50,[19],5.76 µg/mL
same,IC80,[19],43 µg/mL
same,IC50,[20],0.06 µg/mL
same,IC80,[20],0.37 µg/mL
same,IC50,[21],45.4 µg/mL
same,IC80,[21],> 50 µg/mL
same,IC50,[22],0.24 µg/mL
same,IC80,[22],0.81 µg/mL
same,IC50,[23],0.02 µg/mL
same,IC80,[23],0.08 µg/mL
same,IC50,[24],0.03 µg/mL
same,IC80,[24],0.09 µg/mL
same,IC50,[25],< 0.09 µg/mL
same,IC80,[25],< 0.09 µg/mL
same,IC50,[26],0.03 µg/mL
same,IC80,[26],0.11 µg/mL
same,IC50,[27],0.25 µg/mL
same,IC80,[27],2.03 µg/mL
same,IC50,[28],0.02 µg/mL
same,IC80,[28],0.08 µg/mL
PGDM1400 (antibody),neutralization IC50,[1],0.436 µg/mL
same,neutralization IC80,[1],6.53 µg/mL
same,neutralization IC50,[3],4.32 µg/mL
same,neutralization IC80,[3],> 50 µg/mL
same,neutralization IC50,[4],0.003 µg/mL
same,neutralization IC80,[4],0.011 µg/mL
same,neutralization IC50,[5],5.18 µg/mL
same,neutralization IC80,[5],22 µg/mL
same,neutralization IC50,[6],0.039 µg/mL
same,neutralization IC80,[6],0.786 µg/mL
same,neutralization IC50,[7],0.694 µg/mL
same,neutralization IC80,[7],> 50 µg/mL
same,IC50 (Titer in TZM.bl cells),[29],0.025 µg/mL
same,IC80 (Titer in TZM.bl cells),[29],1.28 µg/mL
same,neutralization IC50,[8],0.003 µg/mL
same,neutralization IC80,[8],0.012 µg/mL
same,neutralization IC50,[9],0.166 µg/mL
same,neutralization IC80,[9],> 50 µg/mL
same,neutralization IC50,[10],> 50 µg/mL
same,neutralization IC80,[10],> 50 µg/mL
same,neutralization IC50,[11],0.063 µg/mL
same,neutralization IC80,[11],0.285 µg/mL
same,neutralization IC50,[12],0.004 µg/mL
same,neutralization IC80,[12],0.014 µg/mL
same,IC50 (Titer in TZM.bl cells),[30],0.011 µg/mL
same,IC80 (Titer in TZM.bl cells),[30],0.051 µg/mL
same,neutralization IC50,[13],> 50 µg/mL
same,neutralization IC80,[13],> 50 µg/mL
same,IC50 (Titer in TZM.bl cells),[31],0.501 µg/mL
same,IC80 (Titer in TZM.bl cells),[31],11.8 µg/mL
same,IC50 (Titer in TZM.bl cells),[32],0.671 µg/mL
same,IC80 (Titer in TZM.bl cells),[32],2 µg/mL
same,neutralization IC50,[15],0.049 µg/mL
same,neutralization IC80,[15],0.23 µg/mL
same,neutralization IC50,[16],> 50 µg/mL
same,neutralization IC80,[16],> 50 µg/mL
same,neutralization IC50,[17],0.028 µg/mL
same,neutralization IC80,[17],0.992 µg/mL
same,neutralization IC50,[18],3.26 µg/mL
same,neutralization IC80,[18],11.8 µg/mL
same,IC50 (Titer in TZM.bl cells),[33],0.574 µg/mL
same,IC80 (Titer in TZM.bl cells),[33],4.94 µg/mL
same,IC50 (Titer in TZM.bl cells),[34],0.006 µg/mL
same,IC80 (Titer in TZM.bl cells),[34],0.021 µg/mL
same,neutralization IC50,[19],0.007 µg/mL
same,neutralization IC80,[19],0.021 µg/mL
same,neutralization IC50,[20],0.002 µg/mL
same,neutralization IC80,[20],0.031 µg/mL
same,neutralization IC50,[21],< 0.001 µg/mL
same,neutralization IC80,[21],0.002 µg/mL
same,IC50 (Titer in TZM.bl cells),[35],0.013 µg/mL
same,IC80 (Titer in TZM.bl cells),[35],0.289 µg/mL
same,neutralization IC50,[22],0.001 µg/mL
same,neutralization IC80,[22],0.007 µg/mL
same,neutralization IC50,[23],0.001 µg/mL
same,neutralization IC80,[23],0.007 µg/mL
same,neutralization IC50,[24],0.089 µg/mL
same,neutralization IC80,[24],0.572 µg/mL
same,neutralization IC50,[25],0.447 µg/mL
same,neutralization IC80,[25],2.19 µg/mL
same,neutralization IC50,[26],0.016 µg/mL
same,neutralization IC80,[26],0.701 µg/mL
same,neutralization IC50,[27],0.004 µg/mL
same,neutralization IC80,[27],0.014 µg/mL
same,neutralization IC50,[28],0.002 µg/mL
same,neutralization IC80,[28],0.008 µg/mL
same,IC50 (Titer in TZM.bl cells),[36],> 50 µg/mL
same,IC80 (Titer in TZM.bl cells),[36],> 50 µg/mL
same,IC50 (Titer in TZM.bl cells),[37],0.443 µg/mL
same,IC80 (Titer in TZM.bl cells),[37],1.29 µg/mL
